Measured values: patent US20250011368A1, “DLL3 TARGETING PEPTIDES AND CONSTRUCTS THEREOF” (MARIANA ONCOLOGY INC., priority 2023, published 2025)
Bridge positions count the residues as written; N and C are the ends. Square brackets hold non-standard residues; d marks the D form. * marks the point of attachment. DOTA = O=C(O)CN1CCN(CC(=O)O)CCN(CC(=O)*)CCN(CC(=O)O)CC1; Ala(morpholin-4-yl) = N[C@@H](CN1CCOCC1)C(=O)O; 2Nal = N[C@@H](Cc1ccc2ccccc2c1)C(=O)O; 3Pal = N[C@@H](Cc1cccnc1)C(=O)O; 4Pal = N[C@@H](Cc1ccncc1)C(=O)O

T1: DLL3 on CT26.DLL3 cells (Homo sapiens (Human), UniProt Q9NYJ7 27-618)
T1 construct: CT26.DLL3 are engineered cells to express DLL3
T1 sequence: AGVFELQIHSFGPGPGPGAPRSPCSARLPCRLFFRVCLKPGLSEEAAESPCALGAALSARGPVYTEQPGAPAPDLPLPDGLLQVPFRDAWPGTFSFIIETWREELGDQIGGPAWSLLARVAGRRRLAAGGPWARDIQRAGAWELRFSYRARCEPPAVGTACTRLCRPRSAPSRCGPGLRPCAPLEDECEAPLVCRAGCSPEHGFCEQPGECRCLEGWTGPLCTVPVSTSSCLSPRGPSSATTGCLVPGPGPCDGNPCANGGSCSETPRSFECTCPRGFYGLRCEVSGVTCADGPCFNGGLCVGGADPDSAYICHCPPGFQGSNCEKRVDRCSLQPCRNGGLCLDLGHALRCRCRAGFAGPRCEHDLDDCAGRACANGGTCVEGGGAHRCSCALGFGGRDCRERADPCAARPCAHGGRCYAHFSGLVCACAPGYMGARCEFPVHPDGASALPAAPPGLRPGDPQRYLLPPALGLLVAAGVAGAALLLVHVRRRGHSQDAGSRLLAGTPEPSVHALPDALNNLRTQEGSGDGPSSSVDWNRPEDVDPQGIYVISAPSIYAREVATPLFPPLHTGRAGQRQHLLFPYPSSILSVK


Target: T1, DLL3 on CT26.DLL3 cells
Assay: 177Lu-peptide bound to CT26.DLL3 cells, gamma counting; letter grade, key in paragraph 629
Experimental: The study was conducted using SHP-77, CT26.WT, and CT26.DLL3 cells (Table 7) Adherent cell studies: The cells were cultured in appropriate culture media (20 mL) in tissue culture treated T150 flasks at 37° C. and 5% CO2. Adherent cells were detached (60-70% confluent) using 5 mL Versene at 37° C. for 3 minutes. After confirming the viability using countess and count of detached cells using Trypan blue, the cells were centrifuged at 4° C. for 5 minutes (1,000 rpm). The cell pellet obtained was washed once with PBS and resuspended in 1% PBSA to obtain the desired cell concentration (5-25 million cells/mL).
Total uptake: Cells were incubated with 300 μL (0.8 μCi) of the incubation buffer (containing radiolabeled peptide [¹⁷⁷Lu] Lu-test peptide) for 1 hour at 37° C. (Table 8). Post incubation, the cells were pelleted and washed 2 times using cold PBS+1% BSA. The supernatant and washes were combined and counted together as “unbound fraction” in a gamma counter. The cells were then resuspended in 300 μL of 1% PBS+1% BSA and counted in the gamma counter as “bound fraction”.

Binder	% Binding
Ac-WTIC[3Pal]N[2Nal]HDCWP[dK](DOTA)-NH2 (disulfide 4-10; also: 177Lu in the DOTA chelator, also called [177Lu]Lu-test peptide) [[177Lu]Lu-labelled Cpd No. 263]	≤ 25%
Ac-WTIC[4Pal]N[2Nal]HDCWP[dK](DOTA)-NH2 (disulfide 4-10; also: 177Lu in the DOTA chelator, also called [177Lu]Lu-test peptide) [[177Lu]Lu-labelled Cpd No. 264]	≤ 25%
Ac-WTICNN[2Nal]HNCWP[dK](DOTA)-NH2 (disulfide 4-10; also: 177Lu chelated in DOTA, also called [177Lu]Lu-test peptide) [[177Lu]Lu-labelled Cpd No. 211]	≤ 25%
Ac-WTICNN[2Nal]KDCWP[dK](DOTA)-NH2 (disulfide 4-10; also: 177Lu in the DOTA chelator, also called [177Lu]Lu-test peptide) [[177Lu]Lu-labelled Cpd No. 237]	≤ 25%
Ac-WTIC[Ala(morpholin-4-yl)]N[2Nal]HDCWP[dK](DOTA)-NH2 (disulfide 4-10; also: 177Lu in the DOTA chelator, also called [177Lu]Lu-test peptide) [[177Lu]Lu-labelled Cpd No. 261]	≤ 25%
